Each binder was assayed against T1, CD3 epsilon homodimer protein (UniProt P07766 23-126) (assay: SPR Biacore T200, CD3 epsilon homodimer on CM4 chip, antibody as analyte;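 further: Amine-coupled CD3 epsilon homodimer, run at 25 °C in HBS-EP+ buffer, ratio is bound amount of each single-residue H chain variant over that of the parent antibody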).
T1 construct: Immobilized on Sensor chip CM4 by amine coupling; construct not described; also called CD3 (CD3 epsilon)
T1 sequence (P07766 23-126): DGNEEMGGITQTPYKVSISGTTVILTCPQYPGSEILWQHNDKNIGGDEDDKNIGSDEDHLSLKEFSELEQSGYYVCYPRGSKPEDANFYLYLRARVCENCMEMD

Row | ratio of amounts bound (Y/X vs CE115HA000) | Binder
1 | 1.43 | CE115HA000 A99F one-arm antibody (antibody, human IgG1, kappa, L234A L235A, N297A, name in Kabat numbering, one-arm antibody (one Fab)) heavy: QVQLVESGGGVVQPGRSLRLSCAASGFTFSNAWMHWVRQAPGKGLEWVAQIKAKSNNYATYYAESVKGRFTISRDDSKNSLYLQMNSLKTEDTAVYYCRYVHYGFYYGVDAWGQGTTVTVSSASTKGPSVFPLAPSSKSTSGGTAALGCLVKDYFPEPVTVSWNSGALTSGVHTFPAVLQSSGLYSLSSVVTVPSSSLGTQTYICNVNHKPSNTKVDKKVEPKSCDKTHTCPPCPAPEAAGGPSVFLFPPKPKDTLMISRTPEVTCVVVDVSHEDPEVKFNWYVDGVEVHNAKTKPREEQYASTYRVVSVLTVLHQDWLNGKEYKCKVSNKALPAPIEKTISKAKGQPREPQVYTLPPSRCELTKNQVSLSCAVKGFYPSDIAVEWESNGQPENNYKTTPPVLDSDGSFFLVSKLTVDKSRWQQGNVFSCSVMHEALHNHYTQKSLSLSPDYKDDDDK EPKSSDKTHTCPPCPAPELLGGPSVFLFPPKPKDTLMISRTPEVTCVVVDVSHEDPEVKFNWYVDGVEVHNAKTKPREEQYNSTYRVVSVLTVLHQDWLNGKEYKCKVSNKALPAPIEKTISKAKGQPREPQVCTLPPSRDELTKNQVSLWCLVKGFYPSDIAVEWESNGQPENNYKTTPPVLDSDGSFFLYSKLTVDKSRWQQGNVFSCSVMHEALHNRYTQKSLSLSP light: DIVMTQSPLSLPVTPGEPASISCRSSQSLVHSNRNTYLHWYQQKPGQAPRLLIYKVSNRFSGVPDRFSGSGSGTDFTLKISRVEAEDVGVYYCGQGTQVPYTFGQGTKLEIKRTVAAPSVFIFPPSDEQLKSGTASVVCLLNNFYPREAKVQWKVDNALQSGNSQESVTEQDSKDSTYSLSSTLTLSKADYEKHKVYACEVTHQGLSSPVTKSFNRGEC
2 | 1.13 | CE115HA000 A99L one-arm antibody (antibody, human IgG1, kappa, L234A L235A, N297A, name in Kabat numbering, one-arm antibody (one Fab)) heavy: QVQLVESGGGVVQPGRSLRLSCAASGFTFSNAWMHWVRQAPGKGLEWVAQIKAKSNNYATYYAESVKGRFTISRDDSKNSLYLQMNSLKTEDTAVYYCRYVHYGLYYGVDAWGQGTTVTVSSASTKGPSVFPLAPSSKSTSGGTAALGCLVKDYFPEPVTVSWNSGALTSGVHTFPAVLQSSGLYSLSSVVTVPSSSLGTQTYICNVNHKPSNTKVDKKVEPKSCDKTHTCPPCPAPEAAGGPSVFLFPPKPKDTLMISRTPEVTCVVVDVSHEDPEVKFNWYVDGVEVHNAKTKPREEQYASTYRVVSVLTVLHQDWLNGKEYKCKVSNKALPAPIEKTISKAKGQPREPQVYTLPPSRCELTKNQVSLSCAVKGFYPSDIAVEWESNGQPENNYKTTPPVLDSDGSFFLVSKLTVDKSRWQQGNVFSCSVMHEALHNHYTQKSLSLSPDYKDDDDK EPKSSDKTHTCPPCPAPELLGGPSVFLFPPKPKDTLMISRTPEVTCVVVDVSHEDPEVKFNWYVDGVEVHNAKTKPREEQYNSTYRVVSVLTVLHQDWLNGKEYKCKVSNKALPAPIEKTISKAKGQPREPQVCTLPPSRDELTKNQVSLWCLVKGFYPSDIAVEWESNGQPENNYKTTPPVLDSDGSFFLYSKLTVDKSRWQQGNVFSCSVMHEALHNRYTQKSLSLSP light: DIVMTQSPLSLPVTPGEPASISCRSSQSLVHSNRNTYLHWYQQKPGQAPRLLIYKVSNRFSGVPDRFSGSGSGTDFTLKISRVEAEDVGVYYCGQGTQVPYTFGQGTKLEIKRTVAAPSVFIFPPSDEQLKSGTASVVCLLNNFYPREAKVQWKVDNALQSGNSQESVTEQDSKDSTYSLSSTLTLSKADYEKHKVYACEVTHQGLSSPVTKSFNRGEC
3 | 0.82 | CE115HA000 A99S one-arm antibody (antibody, human IgG1, kappa, L234A L235A, N297A, name in Kabat numbering, one-arm antibody (one Fab)) heavy: QVQLVESGGGVVQPGRSLRLSCAASGFTFSNAWMHWVRQAPGKGLEWVAQIKAKSNNYATYYAESVKGRFTISRDDSKNSLYLQMNSLKTEDTAVYYCRYVHYGSYYGVDAWGQGTTVTVSSASTKGPSVFPLAPSSKSTSGGTAALGCLVKDYFPEPVTVSWNSGALTSGVHTFPAVLQSSGLYSLSSVVTVPSSSLGTQTYICNVNHKPSNTKVDKKVEPKSCDKTHTCPPCPAPEAAGGPSVFLFPPKPKDTLMISRTPEVTCVVVDVSHEDPEVKFNWYVDGVEVHNAKTKPREEQYASTYRVVSVLTVLHQDWLNGKEYKCKVSNKALPAPIEKTISKAKGQPREPQVYTLPPSRCELTKNQVSLSCAVKGFYPSDIAVEWESNGQPENNYKTTPPVLDSDGSFFLVSKLTVDKSRWQQGNVFSCSVMHEALHNHYTQKSLSLSPDYKDDDDK EPKSSDKTHTCPPCPAPELLGGPSVFLFPPKPKDTLMISRTPEVTCVVVDVSHEDPEVKFNWYVDGVEVHNAKTKPREEQYNSTYRVVSVLTVLHQDWLNGKEYKCKVSNKALPAPIEKTISKAKGQPREPQVCTLPPSRDELTKNQVSLWCLVKGFYPSDIAVEWESNGQPENNYKTTPPVLDSDGSFFLYSKLTVDKSRWQQGNVFSCSVMHEALHNRYTQKSLSLSP light: DIVMTQSPLSLPVTPGEPASISCRSSQSLVHSNRNTYLHWYQQKPGQAPRLLIYKVSNRFSGVPDRFSGSGSGTDFTLKISRVEAEDVGVYYCGQGTQVPYTFGQGTKLEIKRTVAAPSVFIFPPSDEQLKSGTASVVCLLNNFYPREAKVQWKVDNALQSGNSQESVTEQDSKDSTYSLSSTLTLSKADYEKHKVYACEVTHQGLSSPVTKSFNRGEC
4 | 0.84 | CE115HA000 A99T one-arm antibody (antibody, human IgG1, kappa, L234A L235A, N297A, name in Kabat numbering, one-arm antibody (one Fab)) heavy: QVQLVESGGGVVQPGRSLRLSCAASGFTFSNAWMHWVRQAPGKGLEWVAQIKAKSNNYATYYAESVKGRFTISRDDSKNSLYLQMNSLKTEDTAVYYCRYVHYGTYYGVDAWGQGTTVTVSSASTKGPSVFPLAPSSKSTSGGTAALGCLVKDYFPEPVTVSWNSGALTSGVHTFPAVLQSSGLYSLSSVVTVPSSSLGTQTYICNVNHKPSNTKVDKKVEPKSCDKTHTCPPCPAPEAAGGPSVFLFPPKPKDTLMISRTPEVTCVVVDVSHEDPEVKFNWYVDGVEVHNAKTKPREEQYASTYRVVSVLTVLHQDWLNGKEYKCKVSNKALPAPIEKTISKAKGQPREPQVYTLPPSRCELTKNQVSLSCAVKGFYPSDIAVEWESNGQPENNYKTTPPVLDSDGSFFLVSKLTVDKSRWQQGNVFSCSVMHEALHNHYTQKSLSLSPDYKDDDDK EPKSSDKTHTCPPCPAPELLGGPSVFLFPPKPKDTLMISRTPEVTCVVVDVSHEDPEVKFNWYVDGVEVHNAKTKPREEQYNSTYRVVSVLTVLHQDWLNGKEYKCKVSNKALPAPIEKTISKAKGQPREPQVCTLPPSRDELTKNQVSLWCLVKGFYPSDIAVEWESNGQPENNYKTTPPVLDSDGSFFLYSKLTVDKSRWQQGNVFSCSVMHEALHNRYTQKSLSLSP light: DIVMTQSPLSLPVTPGEPASISCRSSQSLVHSNRNTYLHWYQQKPGQAPRLLIYKVSNRFSGVPDRFSGSGSGTDFTLKISRVEAEDVGVYYCGQGTQVPYTFGQGTKLEIKRTVAAPSVFIFPPSDEQLKSGTASVVCLLNNFYPREAKVQWKVDNALQSGNSQESVTEQDSKDSTYSLSSTLTLSKADYEKHKVYACEVTHQGLSSPVTKSFNRGEC
5 | 1.48 | CE115HA000 A99K one-arm antibody (antibody, human IgG1, kappa, L234A L235A, N297A, name in Kabat numbering, one-arm antibody (one Fab)) heavy: QVQLVESGGGVVQPGRSLRLSCAASGFTFSNAWMHWVRQAPGKGLEWVAQIKAKSNNYATYYAESVKGRFTISRDDSKNSLYLQMNSLKTEDTAVYYCRYVHYGKYYGVDAWGQGTTVTVSSASTKGPSVFPLAPSSKSTSGGTAALGCLVKDYFPEPVTVSWNSGALTSGVHTFPAVLQSSGLYSLSSVVTVPSSSLGTQTYICNVNHKPSNTKVDKKVEPKSCDKTHTCPPCPAPEAAGGPSVFLFPPKPKDTLMISRTPEVTCVVVDVSHEDPEVKFNWYVDGVEVHNAKTKPREEQYASTYRVVSVLTVLHQDWLNGKEYKCKVSNKALPAPIEKTISKAKGQPREPQVYTLPPSRCELTKNQVSLSCAVKGFYPSDIAVEWESNGQPENNYKTTPPVLDSDGSFFLVSKLTVDKSRWQQGNVFSCSVMHEALHNHYTQKSLSLSPDYKDDDDK EPKSSDKTHTCPPCPAPELLGGPSVFLFPPKPKDTLMISRTPEVTCVVVDVSHEDPEVKFNWYVDGVEVHNAKTKPREEQYNSTYRVVSVLTVLHQDWLNGKEYKCKVSNKALPAPIEKTISKAKGQPREPQVCTLPPSRDELTKNQVSLWCLVKGFYPSDIAVEWESNGQPENNYKTTPPVLDSDGSFFLYSKLTVDKSRWQQGNVFSCSVMHEALHNRYTQKSLSLSP light: DIVMTQSPLSLPVTPGEPASISCRSSQSLVHSNRNTYLHWYQQKPGQAPRLLIYKVSNRFSGVPDRFSGSGSGTDFTLKISRVEAEDVGVYYCGQGTQVPYTFGQGTKLEIKRTVAAPSVFIFPPSDEQLKSGTASVVCLLNNFYPREAKVQWKVDNALQSGNSQESVTEQDSKDSTYSLSSTLTLSKADYEKHKVYACEVTHQGLSSPVTKSFNRGEC
6 | 0.91 | CE115HA000 A99Q one-arm antibody (antibody, human IgG1, kappa, L234A L235A, N297A, name in Kabat numbering, one-arm antibody (one Fab)) heavy: QVQLVESGGGVVQPGRSLRLSCAASGFTFSNAWMHWVRQAPGKGLEWVAQIKAKSNNYATYYAESVKGRFTISRDDSKNSLYLQMNSLKTEDTAVYYCRYVHYGQYYGVDAWGQGTTVTVSSASTKGPSVFPLAPSSKSTSGGTAALGCLVKDYFPEPVTVSWNSGALTSGVHTFPAVLQSSGLYSLSSVVTVPSSSLGTQTYICNVNHKPSNTKVDKKVEPKSCDKTHTCPPCPAPEAAGGPSVFLFPPKPKDTLMISRTPEVTCVVVDVSHEDPEVKFNWYVDGVEVHNAKTKPREEQYASTYRVVSVLTVLHQDWLNGKEYKCKVSNKALPAPIEKTISKAKGQPREPQVYTLPPSRCELTKNQVSLSCAVKGFYPSDIAVEWESNGQPENNYKTTPPVLDSDGSFFLVSKLTVDKSRWQQGNVFSCSVMHEALHNHYTQKSLSLSPDYKDDDDK EPKSSDKTHTCPPCPAPELLGGPSVFLFPPKPKDTLMISRTPEVTCVVVDVSHEDPEVKFNWYVDGVEVHNAKTKPREEQYNSTYRVVSVLTVLHQDWLNGKEYKCKVSNKALPAPIEKTISKAKGQPREPQVCTLPPSRDELTKNQVSLWCLVKGFYPSDIAVEWESNGQPENNYKTTPPVLDSDGSFFLYSKLTVDKSRWQQGNVFSCSVMHEALHNRYTQKSLSLSP light: DIVMTQSPLSLPVTPGEPASISCRSSQSLVHSNRNTYLHWYQQKPGQAPRLLIYKVSNRFSGVPDRFSGSGSGTDFTLKISRVEAEDVGVYYCGQGTQVPYTFGQGTKLEIKRTVAAPSVFIFPPSDEQLKSGTASVVCLLNNFYPREAKVQWKVDNALQSGNSQESVTEQDSKDSTYSLSSTLTLSKADYEKHKVYACEVTHQGLSSPVTKSFNRGEC

Reference: patent US20240270846A1 (published 2024)
